In publication PMC7392005, “Fructose-1, 6-bisphosphatase 1 interacts with NF-κB p65 to regulate breast tumorigenesis via PIM2 induced phosphorylation” (Theranostics, 2020):

T1: GST-tagged FBP1 (UniProt P09467 1-338)
T1 construct: fructose-1,6-bisphosphatase 1 (FBP1); also called GST-FBP1; source: E. coli BL21 (DE3), purified
T1 sequence (looked up): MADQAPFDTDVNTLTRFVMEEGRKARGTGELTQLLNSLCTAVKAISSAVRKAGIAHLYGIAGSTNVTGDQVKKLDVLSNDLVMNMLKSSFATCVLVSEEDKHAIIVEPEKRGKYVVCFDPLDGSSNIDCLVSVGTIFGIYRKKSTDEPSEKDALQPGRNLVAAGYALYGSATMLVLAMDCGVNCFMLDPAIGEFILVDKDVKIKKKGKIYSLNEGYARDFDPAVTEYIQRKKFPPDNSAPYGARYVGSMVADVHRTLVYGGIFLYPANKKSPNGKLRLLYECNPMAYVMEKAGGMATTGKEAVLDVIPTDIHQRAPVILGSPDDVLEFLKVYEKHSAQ


Assays:
GST-tagged p65 = biological target: T2, GST-tagged p65 (UniProt Q04206 1-551); test: pull-down; GST pull-down: purified GST-tagged protein (or GST) mixed with His-tagged protein, both expressed in E. coli BL21 (DE3); conditions: both partners purified
T2 construct: NF-κB p65 (RelA); also called GST-p65; source: E. coli BL21 (DE3), purified
T2 sequence (Q04206 whole entry): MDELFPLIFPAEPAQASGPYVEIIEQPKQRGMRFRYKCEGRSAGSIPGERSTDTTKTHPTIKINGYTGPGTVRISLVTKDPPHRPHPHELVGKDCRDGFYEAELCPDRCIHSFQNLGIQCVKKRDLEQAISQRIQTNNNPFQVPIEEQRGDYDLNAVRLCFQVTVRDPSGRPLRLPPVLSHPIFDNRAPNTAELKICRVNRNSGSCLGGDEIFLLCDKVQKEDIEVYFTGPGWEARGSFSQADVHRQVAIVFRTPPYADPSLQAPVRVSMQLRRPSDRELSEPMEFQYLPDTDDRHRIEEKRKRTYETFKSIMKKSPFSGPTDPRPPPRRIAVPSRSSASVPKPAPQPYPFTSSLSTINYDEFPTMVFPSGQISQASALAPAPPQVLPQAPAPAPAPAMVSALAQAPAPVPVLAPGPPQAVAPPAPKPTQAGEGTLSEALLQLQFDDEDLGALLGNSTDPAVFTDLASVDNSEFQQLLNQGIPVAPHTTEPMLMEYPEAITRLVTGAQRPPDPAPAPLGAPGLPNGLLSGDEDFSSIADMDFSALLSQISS

GST-tagged FBP1 = biological target: T1, GST-tagged FBP1; test: as above; conditions: both partners purified

Binder | binding result (GST-tagged p65) | binding result (GST-tagged FBP1)
His-tagged FBP1 (enzyme, UniProt P09467 1-338, looked up, fructose-1,6-bisphosphatase 1 (FBP1); also called His-FBP1; source: E. coli BL21 (DE3)) MADQAPFDTDVNTLTRFVMEEGRKARGTGELTQLLNSLCTAVKAISSAVRKAGIAHLYGIAGSTNVTGDQVKKLDVLSNDLVMNMLKSSFATCVLVSEEDKHAIIVEPEKRGKYVVCFDPLDGSSNIDCLVSVGTIFGIYRKKSTDEPSEKDALQPGRNLVAAGYALYGSATMLVLAMDCGVNCFMLDPAIGEFILVDKDVKIKKKGKIYSLNEGYARDFDPAVTEYIQRKKFPPDNSAPYGARYVGSMVADVHRTLVYGGIFLYPANKKSPNGKLRLLYECNPMAYVMEKAGGMATTGKEAVLDVIPTDIHQRAPVILGSPDDVLEFLKVYEKHSAQ | binds | –
His-tagged PIM2 (enzyme, serine/threonine kinase PIM2; also called His-PIM2; source: E. coli BL21 (DE3), purified) not shown | – | binds
